Results published in US20140206609A1 (Sanofi, published 2014).
*1 amine or outer side, *2 acyl side, *3 side chain or, on linkers, in order; H or OH if unused. Where no end group is shown, it is not given here. Side-chain parts run from the residue outwards. [ ]: non-standard residue; d: D form. The star is where a group is joined. henicosanoyl = CCCCCCCCCCCCCCCCCCCCC(=O)*; γGlu = O=C(O)[C@H](CCC(=O)[*:2])N[*:1]; Stearoyl = CCCCCCCCCCCCCCCCCC(=O)*; Palmitoyl = CCCCCCCCCCCCCCCC(=O)*; Aib = CC(C)(N)C(=O)O; GABA = NCCCC(=O)O

Legend:
Test in all cases: cell-based or functional assay
human GLP-1 receptor = human GLP-1 receptor (human, UniProt P43220 24-463)
human GIP receptor = biological target: T1, human GIP receptor (human, UniProt P48546 22-466)
T1 sequence (looked up): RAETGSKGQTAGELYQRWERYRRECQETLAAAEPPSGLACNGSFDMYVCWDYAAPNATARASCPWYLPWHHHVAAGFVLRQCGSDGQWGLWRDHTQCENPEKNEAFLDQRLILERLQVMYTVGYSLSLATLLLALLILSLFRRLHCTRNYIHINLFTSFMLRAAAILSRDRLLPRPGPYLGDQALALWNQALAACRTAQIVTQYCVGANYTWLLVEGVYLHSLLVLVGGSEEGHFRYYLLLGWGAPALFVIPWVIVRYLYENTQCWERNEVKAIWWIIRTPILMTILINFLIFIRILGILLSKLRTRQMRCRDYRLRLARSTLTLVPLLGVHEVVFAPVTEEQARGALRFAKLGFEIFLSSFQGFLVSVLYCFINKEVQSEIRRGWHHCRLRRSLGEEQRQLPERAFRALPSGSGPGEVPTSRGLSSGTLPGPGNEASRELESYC

human glucagon receptor = human glucagon receptor (human, UniProt P47871 26-477)
Sequence of human glucagon receptor (P47871 26-477): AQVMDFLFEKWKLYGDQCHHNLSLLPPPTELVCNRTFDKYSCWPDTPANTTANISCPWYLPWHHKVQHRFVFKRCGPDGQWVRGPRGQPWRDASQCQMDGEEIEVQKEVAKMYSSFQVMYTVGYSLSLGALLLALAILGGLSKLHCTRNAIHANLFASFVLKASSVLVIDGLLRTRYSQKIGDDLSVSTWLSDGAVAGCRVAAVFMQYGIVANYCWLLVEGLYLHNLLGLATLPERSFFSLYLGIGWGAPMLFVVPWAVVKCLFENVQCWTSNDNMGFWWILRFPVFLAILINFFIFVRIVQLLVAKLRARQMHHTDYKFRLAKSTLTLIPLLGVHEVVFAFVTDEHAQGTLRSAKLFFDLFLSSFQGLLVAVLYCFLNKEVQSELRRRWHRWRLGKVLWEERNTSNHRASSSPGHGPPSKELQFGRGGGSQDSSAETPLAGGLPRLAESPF

B1: SEQ ID NO: 19 (peptide)
peptide: Y[Aib]EGTFTSDLSIQK([γGlu-Stearoyl])EKRAAQEFIEWLKNTGPSSGAPPPS-NH2
modifications: N-terminus assumed
SMILES: CCCCCCCCCCCCCCCCCC(=O)N[C@@H](CCC(=O)NCCCC[C@H](NC(=O)[C@H](CCC(N)=O)NC(=O)[C@@H](NC(=O)[C@H](CO)NC(=O)[C@H](CC(C)C)NC(=O)[C@H](CC(=O)O)NC(=O)[C@H](CO)NC(=O)[C@@H](NC(=O)[C@H](Cc1ccccc1)NC(=O)[C@@H](NC(=O)CNC(=O)[C@H](CCC(=O)O)NC(=O)C(C)(C)NC(=O)[C@@H](N)Cc1ccc(O)cc1)[C@@H](C)O)[C@@H](C)O)[C@@H](C)CC)C(=O)N[C@@H](CCC(=O)O)C(=O)N[C@@H](CCCCN)C(=O)N[C@@H](CCCNC(=N)N)C(=O)N[C@@H](C)C(=O)N[C@@H](C)C(=O)N[C@@H](CCC(N)=O)C(=O)N[C@@H](CCC(=O)O)C(=O)N[C@@H](Cc1ccccc1)C(=O)N[C@H](C(=O)N[C@@H](CCC(=O)O)C(=O)N[C@@H](Cc1c[nH]c2ccccc12)C(=O)N[C@@H](CC(C)C)C(=O)N[C@@H](CCCCN)C(=O)N[C@@H](CC(N)=O)C(=O)N[C@H](C(=O)NCC(=O)N1CCC[C@H]1C(=O)N[C@@H](CO)C(=O)N[C@@H](CO)C(=O)NCC(=O)N[C@@H](C)C(=O)N1CCC[C@H]1C(=O)N1CCC[C@H]1C(=O)N1CCC[C@H]1C(=O)N[C@@H](CO)C(N)=O)[C@@H](C)O)[C@@H](C)CC)C(=O)O
Human GLP-1 receptor
  EC50 hGLP-1 R [pM]: 4 pM
Human GIP receptor
  EC50 hGIP R [pM]: 13.8 pM
Human glucagon receptor
  EC50 hGLUC R [pM]: 708 pM

B2: SEQ ID NO: 14 (peptide)
peptide: Y[Aib]EGTFTSDLSIQK([γGlu-Stearoyl])EKRAAQEFIEWLKAGGPSSGAPPPS-NH2
modifications: N-terminus assumed
SMILES: CCCCCCCCCCCCCCCCCC(=O)N[C@@H](CCC(=O)NCCCC[C@H](NC(=O)[C@H](CCC(N)=O)NC(=O)[C@@H](NC(=O)[C@H](CO)NC(=O)[C@H](CC(C)C)NC(=O)[C@H](CC(=O)O)NC(=O)[C@H](CO)NC(=O)[C@@H](NC(=O)[C@H](Cc1ccccc1)NC(=O)[C@@H](NC(=O)CNC(=O)[C@H](CCC(=O)O)NC(=O)C(C)(C)NC(=O)[C@@H](N)Cc1ccc(O)cc1)[C@@H](C)O)[C@@H](C)O)[C@@H](C)CC)C(=O)N[C@@H](CCC(=O)O)C(=O)N[C@@H](CCCCN)C(=O)N[C@@H](CCCNC(=N)N)C(=O)N[C@@H](C)C(=O)N[C@@H](C)C(=O)N[C@@H](CCC(N)=O)C(=O)N[C@@H](CCC(=O)O)C(=O)N[C@@H](Cc1ccccc1)C(=O)N[C@H](C(=O)N[C@@H](CCC(=O)O)C(=O)N[C@@H](Cc1c[nH]c2ccccc12)C(=O)N[C@@H](CC(C)C)C(=O)N[C@@H](CCCCN)C(=O)N[C@@H](C)C(=O)NCC(=O)NCC(=O)N1CCC[C@H]1C(=O)N[C@@H](CO)C(=O)N[C@@H](CO)C(=O)NCC(=O)N[C@@H](C)C(=O)N1CCC[C@H]1C(=O)N1CCC[C@H]1C(=O)N1CCC[C@H]1C(=O)N[C@@H](CO)C(N)=O)[C@@H](C)CC)C(=O)O
Human GLP-1 receptor
  EC50 hGLP-1 R [pM]: 4.3 pM
Human GIP receptor
  EC50 hGIP R [pM]: 4.4 pM
Human glucagon receptor
  EC50 hGLUC R [pM]: 3760 pM

B3: SEQ ID NO: 16 (peptide)
peptide: Y[Aib]EGTFTSDLSIQK([γGlu-γGlu-Stearoyl])EKRAA[Aib]EFIEWLKNTGPSSGAPPPS-NH2
modifications: N-terminus assumed
SMILES: CCCCCCCCCCCCCCCCCC(=O)N[C@@H](CCC(=O)N[C@@H](CCC(=O)NCCCC[C@H](NC(=O)[C@H](CCC(N)=O)NC(=O)[C@@H](NC(=O)[C@H](CO)NC(=O)[C@H](CC(C)C)NC(=O)[C@H](CC(=O)O)NC(=O)[C@H](CO)NC(=O)[C@@H](NC(=O)[C@H](Cc1ccccc1)NC(=O)[C@@H](NC(=O)CNC(=O)[C@H](CCC(=O)O)NC(=O)C(C)(C)NC(=O)[C@@H](N)Cc1ccc(O)cc1)[C@@H](C)O)[C@@H](C)O)[C@@H](C)CC)C(=O)N[C@@H](CCC(=O)O)C(=O)N[C@@H](CCCCN)C(=O)N[C@@H](CCCNC(=N)N)C(=O)N[C@@H](C)C(=O)N[C@@H](C)C(=O)NC(C)(C)C(=O)N[C@@H](CCC(=O)O)C(=O)N[C@@H](Cc1ccccc1)C(=O)N[C@H](C(=O)N[C@@H](CCC(=O)O)C(=O)N[C@@H](Cc1c[nH]c2ccccc12)C(=O)N[C@@H](CC(C)C)C(=O)N[C@@H](CCCCN)C(=O)N[C@@H](CC(N)=O)C(=O)N[C@H](C(=O)NCC(=O)N1CCC[C@H]1C(=O)N[C@@H](CO)C(=O)N[C@@H](CO)C(=O)NCC(=O)N[C@@H](C)C(=O)N1CCC[C@H]1C(=O)N1CCC[C@H]1C(=O)N1CCC[C@H]1C(=O)N[C@@H](CO)C(N)=O)[C@@H](C)O)[C@@H](C)CC)C(=O)O)C(=O)O
Human GLP-1 receptor
  EC50 hGLP-1 R [pM]: 4 pM
Human GIP receptor
  EC50 hGIP R [pM]: 5.1 pM
Human glucagon receptor
  EC50 hGLUC R [pM]: 2890 pM

B4: SEQ ID NO: 17 (peptide)
peptide: Y[Aib]EGTFTSDLSIQK([GABA-Stearoyl])EKRAA[Aib]EFIEWLKNTGPSSGAPPPS-NH2
modifications: N-terminus assumed
SMILES: CCCCCCCCCCCCCCCCCC(=O)NCCCC(=O)NCCCC[C@H](NC(=O)[C@H](CCC(N)=O)NC(=O)[C@@H](NC(=O)[C@H](CO)NC(=O)[C@H](CC(C)C)NC(=O)[C@H](CC(=O)O)NC(=O)[C@H](CO)NC(=O)[C@@H](NC(=O)[C@H](Cc1ccccc1)NC(=O)[C@@H](NC(=O)CNC(=O)[C@H](CCC(=O)O)NC(=O)C(C)(C)NC(=O)[C@@H](N)Cc1ccc(O)cc1)[C@@H](C)O)[C@@H](C)O)[C@@H](C)CC)C(=O)N[C@@H](CCC(=O)O)C(=O)N[C@@H](CCCCN)C(=O)N[C@@H](CCCNC(=N)N)C(=O)N[C@@H](C)C(=O)N[C@@H](C)C(=O)NC(C)(C)C(=O)N[C@@H](CCC(=O)O)C(=O)N[C@@H](Cc1ccccc1)C(=O)N[C@H](C(=O)N[C@@H](CCC(=O)O)C(=O)N[C@@H](Cc1c[nH]c2ccccc12)C(=O)N[C@@H](CC(C)C)C(=O)N[C@@H](CCCCN)C(=O)N[C@@H](CC(N)=O)C(=O)N[C@H](C(=O)NCC(=O)N1CCC[C@H]1C(=O)N[C@@H](CO)C(=O)N[C@@H](CO)C(=O)NCC(=O)N[C@@H](C)C(=O)N1CCC[C@H]1C(=O)N1CCC[C@H]1C(=O)N1CCC[C@H]1C(=O)N[C@@H](CO)C(N)=O)[C@@H](C)O)[C@@H](C)CC
Human GLP-1 receptor
  EC50 hGLP-1 R [pM]: 8.7 pM
Human GIP receptor
  EC50 hGIP R [pM]: 9.6 pM
Human glucagon receptor
  EC50 hGLUC R [pM]: 9740 pM

B5: SEQ ID NO: 13 (peptide)
peptide: Y[Aib]QGTFTSDLSIQK([γGlu-Palmitoyl])DSRAAQDFIEWLKNGGPSSGAPPPS-NH2
modifications: N-terminus assumed
SMILES: CCCCCCCCCCCCCCCC(=O)N[C@@H](CCC(=O)NCCCC[C@H](NC(=O)[C@H](CCC(N)=O)NC(=O)[C@@H](NC(=O)[C@H](CO)NC(=O)[C@H](CC(C)C)NC(=O)[C@H](CC(=O)O)NC(=O)[C@H](CO)NC(=O)[C@@H](NC(=O)[C@H](Cc1ccccc1)NC(=O)[C@@H](NC(=O)CNC(=O)[C@H](CCC(N)=O)NC(=O)C(C)(C)NC(=O)[C@@H](N)Cc1ccc(O)cc1)[C@@H](C)O)[C@@H](C)O)[C@@H](C)CC)C(=O)N[C@@H](CC(=O)O)C(=O)N[C@@H](CO)C(=O)N[C@@H](CCCNC(=N)N)C(=O)N[C@@H](C)C(=O)N[C@@H](C)C(=O)N[C@@H](CCC(N)=O)C(=O)N[C@@H](CC(=O)O)C(=O)N[C@@H](Cc1ccccc1)C(=O)N[C@H](C(=O)N[C@@H](CCC(=O)O)C(=O)N[C@@H](Cc1c[nH]c2ccccc12)C(=O)N[C@@H](CC(C)C)C(=O)N[C@@H](CCCCN)C(=O)N[C@@H](CC(N)=O)C(=O)NCC(=O)NCC(=O)N1CCC[C@H]1C(=O)N[C@@H](CO)C(=O)N[C@@H](CO)C(=O)NCC(=O)N[C@@H](C)C(=O)N1CCC[C@H]1C(=O)N1CCC[C@H]1C(=O)N1CCC[C@H]1C(=O)N[C@@H](CO)C(N)=O)[C@@H](C)CC)C(=O)O
Human GLP-1 receptor
  EC50 hGLP-1 R [pM]: 7.3 pM
Human GIP receptor
  EC50 hGIP R [pM]: 71 pM
Human glucagon receptor
  EC50 hGLUC R [pM]: 31.3 pM

B6: SEQ ID NO: 20 (peptide)
peptide: Y[Aib]EGTFTSDLSIQK([γGlu-henicosanoyl])EKRAA[Aib]EFIEWLKNTGPSSGAPPPS-NH2
modifications: N-terminus assumed
SMILES: CCCCCCCCCCCCCCCCCCCCC(=O)N[C@@H](CCC(=O)NCCCC[C@H](NC(=O)[C@H](CCC(N)=O)NC(=O)[C@@H](NC(=O)[C@H](CO)NC(=O)[C@H](CC(C)C)NC(=O)[C@H](CC(=O)O)NC(=O)[C@H](CO)NC(=O)[C@@H](NC(=O)[C@H](Cc1ccccc1)NC(=O)[C@@H](NC(=O)CNC(=O)[C@H](CCC(=O)O)NC(=O)C(C)(C)NC(=O)[C@@H](N)Cc1ccc(O)cc1)[C@@H](C)O)[C@@H](C)O)[C@@H](C)CC)C(=O)N[C@@H](CCC(=O)O)C(=O)N[C@@H](CCCCN)C(=O)N[C@@H](CCCNC(=N)N)C(=O)N[C@@H](C)C(=O)N[C@@H](C)C(=O)NC(C)(C)C(=O)N[C@@H](CCC(=O)O)C(=O)N[C@@H](Cc1ccccc1)C(=O)N[C@H](C(=O)N[C@@H](CCC(=O)O)C(=O)N[C@@H](Cc1c[nH]c2ccccc12)C(=O)N[C@@H](CC(C)C)C(=O)N[C@@H](CCCCN)C(=O)N[C@@H](CC(N)=O)C(=O)N[C@H](C(=O)NCC(=O)N1CCC[C@H]1C(=O)N[C@@H](CO)C(=O)N[C@@H](CO)C(=O)NCC(=O)N[C@@H](C)C(=O)N1CCC[C@H]1C(=O)N1CCC[C@H]1C(=O)N1CCC[C@H]1C(=O)N[C@@H](CO)C(N)=O)[C@@H](C)O)[C@@H](C)CC)C(=O)O
Human GLP-1 receptor
  EC50 hGLP-1 R [pM]: 23.2 pM
Human GIP receptor
  EC50 hGIP R [pM]: 24.5 pM
Human glucagon receptor
  EC50 hGLUC R [pM]: 3310 pM
